Data reported in paper PMC2726290, “Decoding of Methylated Histone H3 Tail by the Pygo-BCL9 Wnt Signaling Complex” (Molecular Cell, 2008).
pKd: −log10 of the molar value.

What was measured:
Test in all cases: ITC; protein dialysed into 100 mM NaCl, 25 mM Tris-HCl (pH 8.0), 10 uM ZnCl2, 2 mM beta-mercaptoethanol; histone peptides with free PHD or PHD-HD1 complex; one-site model
[1] = molecular target: dPHD-HD1 complex (Drosophila Pygo PHD 747-808 with Lgs HD1 316-350) (Drosophila) (UniProt Q9V9W8)
[2] = molecular target: hPHD-HD1 complex (hPygo1 PHD 333-402 with hBCL9 HD1) (human) (UniProt Q9Y3Y4)
[3] = molecular target: hPygo1 PHD finger (amino acids 333-402), free (human) (UniProt Q9Y3Y4)
hPygo1 PHD finger (amino acids 333-402), free (human), sequence (Q9Y3Y4 333-402): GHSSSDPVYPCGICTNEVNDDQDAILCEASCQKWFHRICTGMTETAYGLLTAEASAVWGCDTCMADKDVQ

dPHD-HD1 complex (Drosophila Pygo PHD 747-808 with Lgs HD1 316-350) (Drosophila), sequence (Q9V9W8 747-808, chain 1 of 2): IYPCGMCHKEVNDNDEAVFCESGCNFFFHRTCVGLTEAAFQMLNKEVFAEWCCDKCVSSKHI
dPHD-HD1 complex (Drosophila Pygo PHD 747-808 with Lgs HD1 316-350) (Drosophila), sequence (Q961D9 316-350, chain 2 of 2, further chain): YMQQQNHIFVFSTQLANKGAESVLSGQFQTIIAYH
hPHD-HD1 complex (hPygo1 PHD 333-402 with hBCL9 HD1) (human), sequence (Q9Y3Y4 333-402, chain 1 of 2): as the sequence (Q9Y3Y4 333-402) above
hPHD-HD1 complex (hPygo1 PHD 333-402 with hBCL9 HD1) (human), sequence (O00512 177-205, chain 2 of 2, further chain): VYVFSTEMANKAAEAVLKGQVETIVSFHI

pKd [1] | pKd [2] | pKd [3] | Substance
4.89 | 6.05 | 5.62 | H3K4me2 15-mer histone H3 tail peptide (from UniProt P68431 2-16)
4.66 | 5.54 | 5.05 | H3K4me1 15-mer histone H3 tail peptide (from UniProt P68431 2-16)
4.64 | – | – | H3K4me3 15-mer histone H3 tail peptide (from UniProt P68431 2-16)
